Experiments:
[1] = target: dimeric Aβ_(1-15) multi-antigen peptide (MAP); assay: not stated; binding of antibody to branched multi-antigen peptides of Aβ1-15, EC50 (Fig. S5)
[2] = target: ^chaducanumab (murine chimeric IgG2a/kappa version of aducanumab) (human | murine); assay: ELISA; antibody (5 μg/mL) captured on coated goat anti-mouse IgG Fcγ antibody; serially diluted monomeric biotin-conjugated Aβ1-40 in PBS with 1% BSA; HRP-streptavidin detection
Aβ_(1-28) peptide = assay: SPR
Aβ_(1-16) peptide = Aβ_(1-16) peptide (UniProt P05067); assay: MST

Chain of Aβ_(1-28) peptide (P05067 672-699): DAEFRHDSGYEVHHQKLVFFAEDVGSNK

An EC50 [1] greater than 1000 nM was found for “^chaducanumab (murine chimeric IgG2a/kappa version of aducanumab) (antibody)” in this work.
An EC50 [2] greater than 1000 nM was found for “biotin-conjugated Aβ_(1-40) (Aβ_(1-40)-Lys-Biotin), monomeric (peptide)” in this work.
A Kd (Aβ_(1-28) peptide) of 1300 nM and a Kd (Aβ_(1-16) peptide) of 96.6 nM were found for chgantenerumab in this work.

Reference: PMC5913127
